Measurements taken from patent US6855515.

Target: caspase-9 (UniProt P55211)
Experiment: Ki printed in running text; no assay described

## Ac-DEVD-CHO, N-(N-Ac-Asp-Glu-Val)-3-amino-4-oxobutanoic acid (peptide)
  Ki: 60 nM
